Assay [1] concerns the target T1, human full-length recombinant tau (2N4R) (human, UniProt P10636 2-758).
T1 construct: also called full length tau protein; full-length recombinant Tau protein
Kind of assay: SPR, Biacore T200, 25 C, mAb captured by anti-Fc on CM4 chip, tau in solution, 1:1 Langmuir fit. As to the method: (§1) The interactions of anti-tau antibodies with human full-length recombinant tau (2N4R) were studied by SPR using a Biacore T200 at 25° C. with HBS pH 7.4 buffer, supplemented with 3 mM EDTA, and 0.05% Tween 20. Briefly, a biosensor surface was prepared by coupling a mixture of anti-mouse/anti-human IgG Fcγ-fragment specific antibody to the surface of a CM4 sensor chip using manufacturer's instructions for amine-coupling chemistry (>4000 response units (RU)). The coupling buffer was 10 mM sodium acetate, pH 4.5. The anti-tau antibodies were diluted in the running buffer and injected to obtain enough capture to enable detection of antigen binding. Capture of anti-tau mAbs was followed by injection of recombinantly expressed tau solutions ranging from 0.12 nM to 75 nM at 5-fold dilutions. The association and dissociation were monitored for 3 minutes and 60 min respectively at 50 μL/min flow rate. Regeneration of the sensor surface was performed with 0.85% H₃PO₄. The binding sensorgrams were fitted using to a 1:1 Langmuir binding model to obtain on-rates, off-rates, and affinities. PT1B635 and PT1B901 bound to full length tau protein with similar tight affinities as the parent mAbs, PT/66 or PT1B545 (FIG. 3 and Table 2 below).
(In general: SPR reads the build-up and loss of mass on a sensor chip optically.)

Assay [2] concerns the target T1, human full-length recombinant tau (2N4R). Kind of assay: SPR, Biacore T200, 25 C, mAb captured by anti-Fc on CM4 chip, tau in solution, 1:1 Langmuir fit; koff based on 1-hour limit, 5% dissociation. On the procedure: as §1
Assay [3] shares this target. Kind of assay: SPR, mAb captured, tau in solution, single-cycle kinetics, 1:1 Langmuir fit; koff based on 2-hour limit, 5% dissociation.
Assay [4] has the same target. The assay can be described thus: SPR, mAb captured, tau in solution, single-cycle kinetics, 120 min dissociation, 1:1 Langmuir fit.

Positions count from the first letter of the chain named. In names and notes the source's numbering stands.

Usually Kd stands for the free concentration of one partner at which half of the binding sites on the other are occupied at equilibrium, for simple one-to-one binding. A word on the kon: it is the second-order rate constant of association. What is called koff is the first-order rate constant of dissociation.

T1 sequence (P10636 other isoform, or with tags, fused parts or gaps limits assumed): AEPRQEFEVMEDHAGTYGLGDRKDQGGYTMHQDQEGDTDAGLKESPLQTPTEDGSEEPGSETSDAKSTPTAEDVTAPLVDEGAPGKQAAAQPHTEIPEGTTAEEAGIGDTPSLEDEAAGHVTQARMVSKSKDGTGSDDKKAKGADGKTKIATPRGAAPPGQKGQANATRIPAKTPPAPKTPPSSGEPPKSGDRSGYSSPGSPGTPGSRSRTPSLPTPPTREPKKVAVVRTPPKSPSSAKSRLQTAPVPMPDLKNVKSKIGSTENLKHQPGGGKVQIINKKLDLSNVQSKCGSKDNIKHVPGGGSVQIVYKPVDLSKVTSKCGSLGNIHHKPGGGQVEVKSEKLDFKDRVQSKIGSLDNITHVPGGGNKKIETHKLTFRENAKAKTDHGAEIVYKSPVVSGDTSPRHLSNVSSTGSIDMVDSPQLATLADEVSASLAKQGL

B1: PT1B635 (antibody, human IgG1, kappa, V domains shown)
VH: QVQLVQSGAEVKKPGASVKVSCKASGYTFTSYWITWVRQAPGQGLEWMGDIHPGRGSTKYAQKLQGRVTLTTDTSTSTAYMELRSLRSDDTAVYYCARRWGFDYWGQGTLVTVSS
VL: DIVITQTPLSLPVTPGEPASISCRSSKSLLYKDGKTYLNWFLQKPGQSPQLLIYLMSTRASGVPDRFSGSGSGTDFTLKISRVEAEDVGVYYCQQLVDYPLTFGQGTKLEIKR
notes: also called humanized PT/66 variant
Consider B1, for which, in assay [1], the dissociation constant (Kd) was < 0.041 nM and the kon is 370000 M⁻¹ s⁻¹. In addition, in assay [2], the off-rate constant (koff) was < 1.42e-05 s⁻¹.

B2: PT1B1183 (antibody, human IgG1, kappa, V domains shown)
VH: B1 VH with A40R, L70M
VL: B1 VL with I4M, L11S, P15L, E17Q, L42Q, K44R, Q50R, S72A
notes: also called humanized antibody derived from PT1B1153 by modifying the 2nd light chain framework region
Turning to B2, the dissociation rate constant (koff) in assay [3] was < 1.19e-05 s⁻¹. In addition, in assay [4], the Kd is < 0.00618 nM and the kon was found to be 1.99e+06 M⁻¹ s⁻¹.

B3: PT1B901 (antibody, human IgG1, kappa, V domains shown)
VH: B1 VH
VL: B1 VL with G34L
notes: also called humanized PT/66 variant with G44L in LCDR1
Take B3: in assay [1], the equilibrium dissociation constant (Kd) was 0.059 nM, the koff is 2e-05 s⁻¹ and the kon is 300000 M⁻¹ s⁻¹.

B4: PT/66 anti-PHF-Tau monoclonal Ab (mouse parent) (antibody, V domains shown)
VH: QVQLQQPGAELVKPGASVKMSCKASGYTFTSYWITWVKQRPGQGLEWIGDIHPGRGSTKSNEKFKSKATLTVDTSSSTAYMQFSSLTSEDSAVYYCARRWGFDYWGQGTTLTVSS
VL: DIVITQDELSNPVTSGESVSISCRSSKSLLYKDGKTYLNWFLQRPGQSPQLLIYLMSTRASGVSDRFSGSGSGTDFTLEISRVKAEDVGVYYCQQLVDYPLTFGAGTKLELK
notes: Murine mAb
On to B4, for which, in assay [1], the equilibrium dissociation constant (Kd) is < 0.031 nM and the kon is 450000 M⁻¹ s⁻¹. Besides, in assay [2], the koff was < 1.42e-05 s⁻¹.

B5: PT1B545 (antibody, mouse IgG2a, kappa, V domains shown)
VH: B4 VH
VL: DIVITQDELSNPVTSGESVSISCRSSKSLLYKDGKTYLNWFLQRPGQSPQLLIYLMSTRASGVSDRFSGSGSGTDFTLEISRVKAEDVGVYYCQQLVDYPLTFGAGTKLELKR
notes: Recombinant version of the parent mAb PT/66, with mouse constant regions; also called rec. parent; recombinant parent of PT/66
For the molecule B5, in assay [1], the dissociation constant Kd is < 0.028 nM and the kon was determined as 510000 M⁻¹ s⁻¹. In assay [2], the koff was < 1.42e-05 s⁻¹.

For the origin of these results see patent publication US20240166731A1 (Janssen / Centocor, published 2024).
